For experiment [1], the target named is T1, human IL-17A (human, UniProt Q16552 24-155, limits assumed).
T1 sequence (looked up): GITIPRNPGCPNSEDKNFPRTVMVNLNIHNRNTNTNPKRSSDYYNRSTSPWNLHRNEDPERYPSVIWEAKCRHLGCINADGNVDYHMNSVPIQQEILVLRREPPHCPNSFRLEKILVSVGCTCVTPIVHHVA
As to the kind of experiment: ELISA (FIG. 4). Here is the method: (§1) MaxiSorp 96-well plates (NUNC #449824, www.thermofisher.com) were coated with 2 μg/ml human IL-17A (Cell Signaling #89285F, www.cellsignal.com), human IL-17F (Cell Signaling #8906LC, www.cellsignal.com), human IL-17B (Peprotech #200-28, www.peprotech.com), human IL-17C (R&D systems #1234-IL-025/CF, www.rndsystems.com), human IL-17D ((Peprotech #200-27, www.peprotech.com), human IL-17E (R&D systems #1258-IL-025/CF, www.rndsystems.com) in 1×PBS (50 μl/well) respectively. Plates were incubated at 4° C. overnight. Coating solution was removed and plates were washed once with 200 μl/well PBST (1×PBS with 0.05% tween-20). Then 200 μl/well blocking buffer (1×PBS with 0.05% tween-20, 3% BSA) was added and incubated at room temperature for 1 hour. Blocking buffer was removed and plates were washed three times with 200 μl/well PBST (1×PBS with 0.05% tween-20). The anti-IL-25 antibodies (produced in Example 2), were diluted to 10, 3.33, 1.11, 0.37, 0.123, 0.041, 0.0137, 0.0046, 0.0015, 0.00031, 0.000102, 0.000034 μg/ml by 1×PBS and added to the plates (50 μl/well). Plates were incubated at room temperature for 2 hours. Antibodies in the wells were removed and plates were washed three times with 200 μl/well PBST (1×PBS with 0.05% tween-20) each time. Goat anti-human IgG(H&L)-HRP secondary antibody (Jackson Immuno Research #109-035-088, www.jacksonimmuno.com) was diluted 1:5000 in 1×PBS and added to each well (50 μl/well). Plates were incubated at room temperature for 1 hour. Secondary antibody was removed and plates were washed seven times with 200 μl/well PBST (1×PBS with 0.05% tween-20) each time. 50 μl/well TMB (eBioscience #85-00-4201-56, www.ebioscience.com) was added and plates were incubated at room temperature for several minutes. Then 50 μl/well 2N H₂SO₄ was added to stop the reaction. Plates were read at 450 nm.
For orientation: In an ELISA, binding on a coated surface is turned into a signal by an enzyme label.

Experiment [2] has as its target T2, human IL-17C (human, UniProt Q9P0M4 19-197).
T2 sequence (looked up): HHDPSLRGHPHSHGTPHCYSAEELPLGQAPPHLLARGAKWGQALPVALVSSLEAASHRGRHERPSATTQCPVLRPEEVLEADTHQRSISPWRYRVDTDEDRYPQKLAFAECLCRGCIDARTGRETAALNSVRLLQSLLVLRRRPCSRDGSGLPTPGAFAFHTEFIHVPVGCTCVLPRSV
As to the kind of experiment: ELISA (FIG. 4). The protocol:
as §1

In experiment [3] the target is T3, human IL-25 (human, UniProt Q9H293 33-177).
T3 construct: ELISA used bought R&D systems #1258-IL-025/CF; Treated as one molecule; also called IL-17E; human IL-17E
T3 sequence (looked up): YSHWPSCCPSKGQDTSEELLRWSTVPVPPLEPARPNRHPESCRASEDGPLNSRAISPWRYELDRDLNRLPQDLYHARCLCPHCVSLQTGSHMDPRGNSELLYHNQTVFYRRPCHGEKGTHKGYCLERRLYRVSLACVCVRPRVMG
As to the kind of experiment: ELISA, plate coated with human IL-25 (hIl25-HIS), OD450, Example 4; unit from the axis lg(nM) and paragraph 95. Here is the method: MaxiSorp 96-well plates (NUNC #449824, www.thermofisher.com) were coated with 2 μg/ml human IL-25 (R&D systems #1258-IL-025/CF) in 1×PBS (50 μl/well). Plates were incubated at 4° C. overnight. Coating solution was removed and plates were washed once with 200 μl/well PBST (1×PBS with 0.05% tween-20). Then 200 μl/well blocking buffer (1×PBS with 0.05% tween-20, 3% BSA) were added and incubated at room temperature for 1 hour. Blocking buffer was removed and plates were washed three times with 200 μl/well PBST (1×PBS with 0.05% tween-20). Anti-IL-25 antibodies (produced in Example 2) were diluted to 10, 3.33, 1.11, 0.37, 0.123, 0.041, 0.0137, 0.0046, 0.0015, 0.00031, 0.000102, 0.000034 μg/ml by 1×PBS and added to plates (50 μl/well). Plates were incubated at room temperature for 2 hours. Antibodies in the wells were removed and plates were washed three times with 200 μl/well PBST (1×PBS with 0.05% tween-20). Goat anti-human IgG (H&L)-HRP secondary antibody (Jackson Immuno Research #109-035-088, www.jacksonimmuno.com) was diluted 1:5000 in 1×PBS and added to each well (50 μl/well). Plates were incubated at room temperature for 1 hour. Secondary antibody was removed and plates were washed seven times with 200 μl/well PBST (1×PBS with 0.05% tween-20) each time. 50 μl/well TMB (eBioscience #85-00-4201-56, www.ebioscience.com) was added and plates were incubated at room temperature for several minutes. Then 50 μl/well 2N H₂SO₄ was added to stop the reaction. Optical density was measured at 450 nm in relation to human IL-25 binding.

For experiment [4], the target named is T3, human IL-25. Kind of experiment: cell-based or functional assay.
The target in experiment [5] is T4, human IL-17D (human, UniProt Q8TAD2 18-202, limits assumed).
T4 sequence (looked up): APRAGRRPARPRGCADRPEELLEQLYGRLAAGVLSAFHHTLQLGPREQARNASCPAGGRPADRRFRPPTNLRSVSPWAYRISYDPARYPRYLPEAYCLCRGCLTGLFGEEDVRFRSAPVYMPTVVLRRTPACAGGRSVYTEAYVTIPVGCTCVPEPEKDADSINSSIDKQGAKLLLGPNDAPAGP
Kind of experiment: ELISA, plate coated with 2 µg/ml cytokine. Here is the method: as §1

Experiment [6] concerns the target T5, human IL-17F (human, UniProt Q96PD4 31-163).
T5 sequence (looked up): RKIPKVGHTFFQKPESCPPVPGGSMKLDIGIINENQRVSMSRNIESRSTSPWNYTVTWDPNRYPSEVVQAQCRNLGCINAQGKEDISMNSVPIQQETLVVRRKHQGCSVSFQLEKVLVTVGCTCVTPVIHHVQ
Kind of experiment: ELISA, plate coated with 2 µg/ml cytokine. The protocol: as §1

Data on 5 molecules can be found in patent publication US20210332123A1 (SUZHOU KANOVA BIOPHARMACEUTICAL, published 2021).

The EC50 is the midpoint of the concentration-response curve.

Residue numbers refer to the chain shown, from its start.

B1: murine anti-IL-25 monoclonal antibody 18H3 (antibody, V domains shown)
VH: QVTLKESGPGILQPSQTLSLTCSFSGFSLSTSGMGLGWIRQPSGKGLEWLAHIWWDDVKHYKPALKSRLTISKDISSSQVFLTIASVDTADTATYYCARMGQLHYYGYDYAMDYWGQGTSVTVSS
VL: QIVLTQSPAIMSASPGEKVTISCSASSSVSYMYWYQQKPGSSPKPWIYRTSNLASGVPARFSGSGSGTSYSLTISSMEAEDAATYYCQLYHSYPPTWTFGGGTKLEIK
notes: also called parental antibody; parental murine mAb
B1: the binding result in experiment [1] and in experiment [2] was “no binding” each time. The same molecule yielded an EC50 in experiment [3] of 187 pM.

B2: VH1-1 + VL2-1 (humanized anti-IL-25 antibody formed by VH1-1 and VL2-1) (antibody, V domains shown)
VH: QVTLKESGPTLVKPTQTLTLTCTFSGFSLSTSGMGLGWIRQPPGKALEWLAHIWWDDVKHYKPALKSRLTITKDTSKNQVVLTMTNVDPVDTATYYCARMGQLHYYGYDYAMDYWGQGTLVTVSS
VL: DIQLTQSPSFLSASVGDRVTITCSASSSVSYMYWYQQKPGKAPKPLIYRTSNLASGVPSRFSGSGSGTEYTLTISSMQPEDFATYYCQLYHSYPPTWTFGQGTKLEIK
Regarding B2, in experiment [4], the “IC50, CXCL1/GROalpha production of HT-29 cells stimulated by human IL-25 [A]” value came to 7230 pM. The binding result in experiment [5] and in experiment [6] was “no binding (tested: 10 µg/ml)” each time. Besides, the midpoint of the response in experiment [3], the EC50, lay at 154 pM.

B3: VH2-1 + VL1-2 (humanized anti-IL-25 antibody formed by VH2-1 and VL1-2) (antibody, V domains shown)
VH: B2 VH with K5R, T10A, V12L, T72S, M84I
VL: EIVLTQSPATLSASPGERVTISCSASSSVSYMYWYQQKPGQAPRPLIYRTSNLASGVPARFSGSGSGTDYTLTISSMEPEDFATYYCQLYHSYPPTWTFGQGTKLEIK
As for B3, the binding result in experiment [5] and in experiment [6] was “no binding (tested: 10 µg/ml)” in each case. Moreover, the EC50 in experiment [3] came to 196 pM.

B4: VH1-1 + VL1-2 (humanized anti-IL-25 antibody formed by VH1-1 and VL1-2) (antibody, V domains shown)
VH: B2 VH
VL: B3 VL
notes: Captured by anti-human Fc gamma antibody in SPR
B4: the “IC50, CXCL1/GROalpha production of HT-29 cells stimulated by human IL-25 [A]” value in experiment [4] is 11400 pM. Moreover, the binding result in experiment [5] and in experiment [6] was “no binding (tested: 10 µg/ml)” in each case. The molecule further gave a half-maximal effective concentration (EC50) in experiment [3] of 252 pM.

B5: VH2-1 + VL2-1 (humanized anti-IL-25 antibody formed by VH2-1 and VL2-1) (antibody, V domains shown)
VH: B2 VH with K5R, T10A, V12L, T72S, M84I
VL: B2 VL
Take B5: the binding result in experiment [5] and in experiment [6] was “no binding (tested: 10 µg/ml)” each time. Moreover, the midpoint of the response in experiment [3], the EC50, lay at 187 pM.
